Laboratory results as given in the supplement of paper PMC10126150.
± gives the standard deviation of the averaged measurements.

Test system: ATP
Assay: switch fluorescence ratio, 500 uM ATP over buffer (Cy3 cluster intensity, sum of 5 cycles each) (fold (ratio)); higher = stronger signal-on switching upon ATP binding; sequences stand for … in TCGTCGGCAGCGTCAGATGTGTATAAGAGACAGTTTTTTTTTTTTTTTTTTTTTTTTT…TC
Settings: aptamer strand: ATP DNA aptamer (quencher-CACCTGGGGGAGTATTGCGGAGGAAGG + anchor), 100 nM annealed; ATP concentration: 500 uM
Outline: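 Per cluster, summed Cy3 intensity from the target cycles was divided by that from the buffer cycles to give the fluorescence ratio, then averaged per switch-domain sequence. Clusters outside 100-1000 RFU were excluded. The Cy3-labelled switching-strand clusters, on a modified Illumina MiSeq flow-cell, were annealed to 100 nM quencher-labelled ATP aptamer and imaged in selection buffer, then after 15 min with 500 uM ATP at 22 °C, for five cycles with NaOH stripping and re-annealing between them.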
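Further: ATP exposure 15 min at 22 °C before imaging.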

Sequence | switch fluorescence ratio
CTCATGAAAC | 1.01 ± 0.046
CTCATGACGG | 1.044 ± 0.0061
CTCATGGGGA | 1.04 ± 0.075
CTCATTTGGT | 0.989 ± 0.028
CTCCAGGGGA | 1.5 ± 0.49
CTCCGAGATG | 5.85 ± 0.59
CTCCGGGGGA | 1.33 ± 0.31
CTCCGTTTTT | 2.88 ± 0.62
CTCCTGTGTT | 1.06 ± 0.0073
CTCCTGTTTT | 1.02 ± 0.023
CTCGACAGGG | 0.991 ± 0.019
CTCGGAGAGG | 0.987 ± 0.033
CTCGGAGATT | 1.01 ± 0.018
CTCGGAGGGA | 0.985 ± 0.04
CTCGGCGTCC | 1.142 ± 0.0086
CTCGGCTTGA | 1.06 ± 0.018
CTCGGGATCA | 1.011 ± 0.0028
CTCGGGGGGC | 0.992 ± 0.063
CTCGGGGTCG | 0.994 ± 0.047
CTCGGGGTTT | 0.998 ± 0.038
CTCGGTATGC | 1.257 ± 0.0034
CTCGGTTAGG | 0.9819 ± 0.0095
CTCGTAGGGG | 1.01 ± 0.039
CTCGTTGAGG | 0.979 ± 0.032
CTCGTTGCGG | 1.06 ± 0.07

Sequence | switch fluorescence ratio
CTCGTTTGAT | 1 ± 0.026
CTCTAAGGGT | 1.005 ± 0.0098
CTCTAAGTCG | 0.976 ± 0.011
CTCTGAGCGG | 1.03 ± 0.048
CTCTGAGGGA | 1.01 ± 0.027
CTCTGGGCAT | 2.2 ± 1.9
CTCTGTAGGC | 1.87 ± 0.31
CTCTGTCACG | 1.11 ± 0.074
CTCTTAGGGG | 1.12 ± 0.16
CTCTTGAGCC | 1.01 ± 0.044
CTCTTTGGAC | 1.53 ± 0.89
CTCTTTTGGG | 0.9652 ± 0.0019
CTGAAAGATA | 0.977 ± 0.055
CTGAAATCTG | 0.9971 ± 0.0094
CTGAACTCGA | 1.09 ± 0.046
CTGAAGCTGT | 2.64 ± 1.3
CTGAAGGGAT | 1.05 ± 0.023
CTGAAGGTTG | 0.9737 ± 0.0014
CTGAATATGA | 1 ± 0.065
CTGAATGC | 1.17 ± 0.035
CTGAATGCAG | 1.069 ± 0.0077
CTGAATGTAG | 1 ± 0.011
CTGAATTAAG | 0.99 ± 0.016
CTGAATTGGT | 0.975 ± 0.012
CTGAATTTCA | 0.9833 ± 0.0017

Sequence | switch fluorescence ratio
CTGACATGAT | 1.07 ± 0.04
CTGACCGGAG | 1.24 ± 0.036
CTGACTCCTT | 1.517 ± 0.015
CTGAGATTTT | 0.931 ± 0.018
CTGAGCTTTC | 1.29 ± 0.15
CTGAGGTAAT | 1.94 ± 0.21
CTGATCATTC | 1.04 ± 0.045
CTGATGGCGT | 1 ± 0.0068
CTGATGGGTG | 1.01 ± 0.013
CTGATGGTAG | 1.01 ± 0.015
CTGATGTACG | 1.06 ± 0.12
CTGATGTGTA | 0.965 ± 0.059
CTGATGTTGT | 1.0036 ± 0.00066
CTGATTGTAC | 1.08 ± 0.069
CTGATTGTGT | 0.9718 ± 0.0034
CTGATTTGTA | 1 ± 0.053
CTGCAAGACA | 2.64 ± 0.72
CTGCAGATCG | 1.02 ± 0.06
CTGCAGGGGA | 1.05 ± 0.048
CTGCATGGGG | 1.062 ± 0.0025
CTGCGTCCAT | 1.068 ± 0.01
CTGCGTCGGA | 1.01 ± 0.032
CTGCGTCTTT | 1.03 ± 0.015
CTGCTAATAT | 1.73 ± 0.14
CTGCTAGGTA | 0.9975 ± 0.0027

Sequence | switch fluorescence ratio
CTGCTCGGTG | 0.987 ± 0.062
CTGCTTAAGG | 1.04 ± 0.065
CTGCTTCGAA | 1.06 ± 0.023
CTGGAAATGG | 1.033 ± 0.0095
CTGGACAGTG | 0.956 ± 0.013
CTGGAGGACT | 1.026 ± 0.0098
CTGGATTGAG | 0.956 ± 0.027
CTGGCCAAGT | 0.999 ± 0.02
CTGGCGGAAA | 1.05 ± 0.093
CTGGCGTTCG | 0.983 ± 0.033
CTGGGAAGGG | 0.9281 ± 0.0061
CTGGGAAGTG | 0.978 ± 0.003
CTGGGATGGG | 1.06 ± 0.13
CTGGGGCGTG | 1.02 ± 0.014
CTGGGGGATG | 0.9863 ± 0.0027
CTGGGGGCGC | 0.996 ± 0.03
CTGGGGGGCT | 1.02 ± 0.021
CTGGGGGGTG | 1.02 ± 0.024
CTGGGGGTAT | 1 ± 0.03
CTGGGGGTTA | 0.999 ± 0.059
CTGGGGTAAT | 1.028 ± 0.0095
CTGGGGTGGC | 1.03 ± 0.046
CTGGGGTTGG | 0.968 ± 0.012
CTGGGTAATA | 1.08 ± 0.047
CTGGGTATTG | 0.971 ± 0.012

Sequence | switch fluorescence ratio
CTGGGTCTTT | 0.99 ± 0.015
CTGGGTTGTA | 1 ± 0.012
CTGGTAAGGT | 0.9947 ± 0.0074
CTGGTAGGGT | 1.02 ± 0.02
CTGGTATAGT | 1.03 ± 0.03
CTGGTATGTG | 0.997 ± 0.029
CTGGTCATGT | 0.995 ± 0.05
CTGGTCGAAT | 1 ± 0.017
CTGGTCGCT | 0.976 ± 0.017
CTGGTGGTGG | 0.986 ± 0.075
CTGGTTAAGG | 0.957 ± 0.017
CTGGTTATTT | 1.04 ± 0.076
CTGGTTGGAG | 0.995 ± 0.022
CTGGTTTCGA | 1.017 ± 0.0082
CTGGTTTTCA | 0.988 ± 0.024
CTGGTTTTGC | 0.998 ± 0.022
CTGTAACGAG | 1.008 ± 0.0075
CTGTAAGGAA | 0.989 ± 0.026
CTGTAATGTT | 0.992 ± 0.011
CTGTAGAGAG | 1.01 ± 0.063
CTGTAGGCCC | 1.05 ± 0.097
CTGTAGGGGG | 1.07 ± 0.13
CTGTAGGTGT | 1.06 ± 0.029
CTGTAGTCTG | 1.11 ± 0.019
CTGTATTAGT | 1.02 ± 0.027

Sequence | switch fluorescence ratio
CTGTATTCGC | 1.172 ± 0.0037
CTGTCAGACT | 1.03 ± 0.058
CTGTCTGGGG | 0.9737 ± 0.0033
CTGTCTGGGT | 0.993 ± 0.029
CTGTGACAAT | 1.04 ± 0.029
CTGTGAGGCT | 1 ± 0.042
CTGTGCAAGT | 1.47 ± 0.073
CTGTGCGCCC | 1.09 ± 0.058
CTGTGGTGGG | 0.996 ± 0.051
CTGTGTTGTG | 0.998 ± 0.015
CTGTTAATTG | 1.016 ± 0.0081
CTGTTACGCA | 1.201 ± 0.0046
CTGTTCATGG | 1.02 ± 0.019
CTGTTCATTG | 0.9807 ± 0.0037
CTGTTCTTTG | 0.982 ± 0.019
CTGTTGACTG | 0.983 ± 0.041
CTGTTTAAGG | 0.986 ± 0.013
CTGTTTAGTC | 1.01 ± 0.015
CTGTTTCACA | 0.949 ± 0.046
CTGTTTGGGG | 1.004 ± 0.0028
CTGTTTTGGG | 1.03 ± 0.032
CTGTTTTTTG | 0.976 ± 0.03
CTTAAAGTGC | 1.05 ± 0.069
CTTAAAGTTA | 1.01 ± 0.018
CTTAAATTGT | 1.01 ± 0.011

Sequence | switch fluorescence ratio
CTTAAATTTA | 1.02 ± 0.022
CTTAACAGAA | 0.9912 ± 0.0059
CTTAATTTTG | 0.973 ± 0.027
CTTACAAGC | 1.04 ± 0.026
CTTACGCAGC | 1.59 ± 0.016
CTTACTATTC | 0.9715 ± 0.0069
CTTAGAAAGC | 1.05 ± 0.022
CTTAGAATCG | 1 ± 0.025
CTTAGAATGA | 0.979 ± 0.025
CTTAGATTTG | 0.9655 ± 0.0076
CTTAGCATTG | 1.03 ± 0.023
CTTAGCCACT | 1.036 ± 0.0065
CTTAGCGGGA | 1.02 ± 0.025
CTTAGCGGGG | 0.9827 ± 0.0064
CTTAGCTTGC | 1.02 ± 0.054
CTTAGGACGC | 1.22 ± 0.0055
CTTAGGGATT | 0.987 ± 0.031
CTTAGGTGAC | 1.034 ± 0.004
CTTAGTCTTT | 1.018 ± 0.0027
CTTAGTTAGT | 0.993 ± 0.01
CTTAGTTTCG | 1.035 ± 0.0071
CTTATAGTTT | 1.01 ± 0.016
CTTATATCTT | 0.993 ± 0.025
CTTATCTTTT | 0.986 ± 0.0097
CTTATTAGCG | 1.03 ± 0.019

Sequence | switch fluorescence ratio
CTTATTGAGC | 1.01 ± 0.012
CTTATTTCGT | 1.001 ± 0.0018
CTTCACAGGG | 1.06 ± 0.04
CTTCACTACG | 1.12 ± 0.043
CTTCAGGAGC | 1.69 ± 0.11
CTTCAGTCTT | 1 ± 0.011
CTTCATGGGT | 0.962 ± 0.013
CTTCATGGTC | 0.96 ± 0.017
CTTCCTATTG | 1.08 ± 0.046
CTTCGGGTAC | 3.69 ± 0.79
CTTCGTGCGA | 1.14 ± 0.023
CTTCTCTATC | 1.01 ± 0.027
CTTCTTTTGG | 0.996 ± 0.032
CTTGAAACGT | 0.992 ± 0.076
CTTGAAGGGG | 0.999 ± 0.036
CTTGAATGCG | 0.999 ± 0.031
CTTGACATA | 1.03 ± 0.011
CTTGAGCAGG | 1.2 ± 0.038
CTTGAGGGGA | 0.983 ± 0.032
CTTGATAAAA | 1.01 ± 0.017
CTTGATATTG | 0.999 ± 0.018
CTTGATGCGA | 1.032 ± 0.0045
CTTGCACCC | 1.07 ± 0.024
CTTGCATTGA | 1.08 ± 0.071
CTTGCCGATT | 0.968 ± 0.029
